Experimental data from patent US20240360204A1 (UNITED STATES GOVERNMENT AS REPRESENTED BY THE DEPARTMENT …, published 2024).

How the values were obtained:
[1] = target: T1, Oxygen stable streptolysin O (SLOwt) from Streptococcus pyogenes, recombinant, N-terminal His-tag, BirA … (Streptococcus pyogenes, UniProt Q5XE40 32-571, limits assumed, mono-biotinylated at the BirA (AviTag) site where biotinylated SLOwt was used (ELISA; one lane of the Western blot)); assay: ELISA
T1 construct: The oxygen-stability change (C to A at position 555) and the tags are kept; also called WT SLO

[2] = target: T1, Oxygen stable streptolysin O (SLOwt) …; assay: cell-based or functional assay

B1: hu55C11λ (antibody, human IgG1, V domains shown)
VH: QVQLVESGGGLVKPGGSLRLSCAASGFTFSSHSMNWVRQTPGKGLEWVSSINTISTFIYYADSVKGRFTVSRDNARNSLFLQMNTLTADDTGVYYCARERGNRFCDGDCYSGTTFDYWGPGTLVTVSS
VL: QPVLTQPPSVSVAPGRTSRITCEENNIGTKNVHWYQQKPGQAPLLVVHDDSDRPSGIPERFSGSNSGNTATLTISRVEAGDEADYYCQVWDSDNDRWLFGGGTRLTVLG
notes: also called 55c11 IgG antibody
[1]
  Kd: 0.038 nM
[2]
  aCTX IC50 (M): anti-cytotoxicity on epithelial cells (A549): 2.6e-09 M
  aHU IC50 (M): neutralization of SLOwt-induced RBC hemolysis: 4.4e-09 M
  aMBEP IC50 (M): anti-membrane binding on epithelial cells: 1.1e-09 M
  aMBRBC IC50 (M): anti-membrane binding on RBCs: 1.3e-09 M

B2: hu55G4λ (antibody, human IgG1, V domains shown)
VH: EVQLVQSGGGAVQPGRSLRLSCAVSGFTFSNFPMHWVRQAPGRGLEWVAVISHDETMIYYLDSVKGRFTISRDNSRNIVYLQMHSLRVEDTAVYYCARDTGVCSGGYCYTPRYFDQWGQGTLVTVSS
VL: QPVLTQPPSVSVAPGKTADITCGGDNIGRKHVHWYRQRPSQAPLLVIYDDSDRPSGIPERLSGINSGNTATLTISGVEVGDEADYYCQVWDNDAEQWVFGGGTKLTV
notes: also called 55G4 IgG antibody; 55LG4
[1]
  Kd: 0.046 nM
[2]
  aCTX IC50 (M): anti-cytotoxicity on epithelial cells (A549): 5.1e-09 M
  aHU IC50 (M): neutralization of SLOwt-induced RBC hemolysis: 6.3e-09 M
  aMBEP IC50 (M): anti-membrane binding on epithelial cells: 2e-09 M
  aMBRBC IC50 (M): anti-membrane binding on RBCs: 7.9e-09 M

B3: hu55L17κ (antibody, human IgG1, V domains shown)
VH: QVQLVQSGAEVKKPGSSVKVSCRPPGGTLSNYAINWVRQAPGQGLEWMGGIVPMFSTTKYAQKFQGRLTLTADLSTITAHMELNRLTSEDTAVYYCARDLPAPYCSADLCYKVLDAFDVWGQGTLVTVSS
VL: EIVLTQSPSSLSASVGDRVTITCQASQDISNYLNWYQQKPGKAPKLLIYKASSLESGVPSRFSGSGSGTEFTLTITRLQPDDFATYYCQQYEEYLRYSFGQGTKLEIK
notes: also called 55L17 IgG antibody
[1]
  Kd: 0.078 nM
[2]
  aCTX IC50 (M): anti-cytotoxicity on epithelial cells (A549): 1.1e-09 M
  aHU IC50 (M): neutralization of SLOwt-induced RBC hemolysis: 2.7e-09 M
